Experimental data as given in US20240324599A1, “PESTICIDAL ENZYMES FOR USE ON NEMATODES, INSECTS, AND MOLLUSKS” (priority 2023, published 2024).
Where two headings read alike, the source gives them in different places.

How the values were obtained:
Assay type in all cases: in vivo
corn [1] = experiment: Greenhouse trial: Rhizopus oryzae Esterase corn seed treatment, plant height
Method: Rhizopus oryzae Esterase (carboxylesterase, SEQ ID NO:253) was coated onto 6049 V2 hybrid corn seeds. A water only control treatment without esterase enzyme was also created. The seed treated with esterase and control seed was planted in replicated greenhouse trials on promix soil with a fluctuating day/night temperature of 78° F./75° F., and 13 hours of light daily. Plant heights were measured on day 10 for each plant emerged from the soil.

[2] = test system: soybean cyst nematode (SCN, Heterodera glycines); experiment: Controlled environment soybean seed treatment trial: SCN cysts on roots; details: Table 16
[3] = test system: SCN juveniles (SCN HG type 1.2.5.7, race 2)
Description: To identify an additional esterase enzyme with efficacy in reducing SCN viability, we performed an in-vitro plate assay with a Pseudomonas sp. esterase (SEQ ID NO: 248) free enzyme direct treatment. The Pseudomonas sp. esterase (SEQ ID NO: 248) was produced by fermentation in Bacillus subtilis. The enzyme was cloned into a Bacillus expression plasmid p1797 with isopropyl β-d-1-thiogalactopyranoside (IPTG) inducible expression. The plasmid was transformed into B. subtilis, and the gene sequence was confirmed. The strain was grown in rich media until an optical density (OD) 0.2-0.5 was reached. Enzyme expression was then induced by addition of […] IPTG. Following the culture harvest, cells were removed by filtration through a […] filter. The culture filtrate containing the secreted enzyme was then collected and used for further applications.
(§1) SCN eggs were obtained from SCN HG type 1.2.5.7, race 2. Eggs were rinsed 4 times with sterile water. Eggs were transferred to a 6-well plate and resuspended in 5 mL of 3 mM ZnSO4. The plate was sealed with parafilm, covered with aluminum foil to prevent light from entering the plate, and placed in a plate growth chamber at 25° C. and 80% relative humidity. After 6-7 days of incubation, an estimate of hatched SCN juveniles was obtained from the well to determine the overall number of juveniles per 10 μL. The concentration of the hatchery solution was adjusted until it consisted of 20-30 juveniles per 10 μL.
Potato dextrose agar media containing chloramphenicol and chlortetracycline was prepared and added to sterile twenty-four-well cell culture plates (1 mL per well). The plates were divided according to the pre-determined N-value for each treatment (N=12-24). Each treatment being tested was added to the agar surface within each well at a rate of 40 μL per well. Without allowing the treatments to dry, 10 μL of the prepared nematode mixture was added to the agar surface within each well.
To quantify the treatments' effects on nematode viability, the nematodes were examined under a dissecting microscope at 20× magnification. Initial (T0) values for the number of live juveniles, number of dead juveniles and total number of juveniles were recorded immediately after preparation of each well. The plates were then wrapped in parafilm around the open edge, encased in aluminum foil, and placed in secondary containment. The secondary containment was placed in a plant growth chamber at 25° C. and 80% relative humidity. At approximately 24 hours post addition of juveniles, the plates were evaluated, and the number of live juveniles, dead juveniles and total number of juveniles were recorded (T24).
The difference in percent death at T0 vs T24 was calculated by subtracting the percent dead at TO [(#dead juveniles/total #juveniles)×100] from the percent dead at T24 [(#dead juveniles/#total juveniles originally present)×100]. […] If the ANOVA indicated a significant difference existed among treatments, Tukey's HSD post hoc test was used to perform a pairwise contrast between each set of treatments. Different letters denote statistically significant results at P<0.05.
as §1, with “from” for “from SCN”, “rinsed four” for “rinsed 4”, “and 80-90%” for “and 80%”, “from each” for “from the”
Potato dextrose agar media containing chloramphenicol and chlortetracycline was prepared and added to sterile twenty-four-well cell culture plates (1 mL per well). […]

corn [4] = experiment: Field trial: PytH Esterase corn seed treatment, yield; details: for Yield: corn seed treatment, 0.5 fl oz/unit with Control Base Package
Description: 0.5 fl oz/unit of PythH Esterase from recombinant Bacillus subtilis fermentation (SEQ ID NO: 255) was coated onto Hybrid corn seeds treated with Fludioxinil fungicide, ipconazole fungicide, peridium 1006 polymer, and Sensient Red (colorant). A control treatment without esterase enzyme was also created. The seed treated with esterase and control seed was planted in replicated trials distributed across 10 replicated plots with 4 replicates of 100 ft2 each at each site.

soybean = experiment: Field trial: Feruloyl Esterase soybean seed treatment, yield; details: for Yield: soybean seed treatment, 1.0 fl oz/unit with Control Base Package
Description: 1 fl oz/unit of Feruloyl Esterase (SEQ ID NO:91) was coated onto soybean seeds treated with Fludioxinil fungicide, metalaxyl fungicide, thiamethoxam […], Seedwork 1037L polymer, and Sensient Red (colorant). A control treatment without esterase enzyme was also created. The seed treated with esterase and control seed was planted in replicated trials distributed across 5 replicated plots with 4 replicates of 30 ft^2 each at each site.

[5] = test system: Garden snails (Cornu aspersum); experiment: Antifeedant and molluscicide bioassay (artificial diet): consumption, survival, weight gain; details: n = 12, 12 days
Method: Two-week old garden snails (Cornu aspersum) and full-size black gloss snails (Zonitoides nitidus) were maintained in a semi-darkened tank at 68-70° F. at high humidity, provided with a wet sponge in a petri dish. Snails were transferred to fresh tank every 2-3 days, and they were feed ad libitum with cucumber slices supplemented with calcium carbonate tablets. Individuals were reared in the laboratory for at least a week to fully acclimate to laboratory conditions prior to testing. The individuals ranged between 3 weeks to 2 months old at the time of bioassay.
Filter-sterilized recombinant enzymes including proteases and lipases were prepared as indicated in Example 25. Corresponding controls (e.g., buffer, fermentation of non-recombinant strain, water) were be prepared accordingly. Enzymes were dried by mixing them with Polyvinylpyrrolidone K30 (Thermo Sci Chem, Cat #227545000) at a ratio of 60 mg PVP per mL of enzymes, dispersed on a petri dish and allowed to dry in a bio-safety hood for 24-48 hours.
The treatments were prepared by mixing 0.4 g of dry enzyme and 1 gram of artificial diet mix. The artificial diet mix consisted of flour supplemented with 30 mg sucrose per gram of flour. Control diet contained 0.4 g of PVP and 1 g of artificial diet mix.
12 snails were randomly assigned to each treatment, labeled with permanent marker on the top of the shell for identification, and their weight (mg) was recorded before treatment. Then snails were transferred to dry plastic containers containing two petri dishes. Humidity was maintained with a folded and soaked light duty tissue paper in one petri dish. 1 g of treatment was provided as a thin layer on the other petri dish and was replaced every other day. At the time of treatment replacement, treatment consumption, weight, and mortality were recorded.

[6] = test system: Fall armyworm (Spodoptera frugiperda); experiment: Diet-surface overlay (DSO) bioassay; details: Table 46
Method: Diet-surface overlay bioassays are conducted with artificial diet mixes without antibiotics in 1.5 cm^2 cell bioassay trays(s). Artificial diets are commercially available from Southland Products Inc. Diets were prepared by dispersing 0.5 mL of molten diet to each 1.5 cm^2 cell. After solidification, 0.1 mL enzyme treatments were dispersed on top of diet in each cell and the tray was gently rocked in an orbital shaker to spread the liquid uniformly over the diet surface. Trays were placed under clean airflow until the surface of each cell was uniformly dried. One or two 16-cell sections were used per treatment (the number in larvae treated was 16 or 32).
One healthy first instar larva was placed into each treatment cell, each 16-cell section was covered with a re-sealable lid and incubated at 27° C. and light-dark period of 16:8 hrs. After 7 days, and according to the species, the number of individuals in the following developmental categories was recorded.
Negative/untreated controls were treated with filtered water and positive controls were treated with lethal doses of Bacillus thuringiensis subsp. Kurstaki (Btk) spores at 1000 ppm.

B1: Rhizopus oryzae Esterase (protein, listed as Rhizopus oryzae)
chain: SDGGKVVAATTAQIQEFTKYAGIAATAYCRSVVPGNKWDCVQCQKWVPDGKIITTFTSLLSDTNGYVLRSDKQKTIYLVFRGTNSFRSAITDIVFNFSDYKPVKGAKVHAGFLSSYEQVVNDYFPVVQEQLTANPTYKVIVTGHSLGGAQALLAGMDLYQREPRLSPKNLSIFTVGGPRVGNPTFAYYVESTGIPFQRTAHKRDIVPHVPPQSFGFLHPGVESWIKSGTSNVQICTSEIETKDCSNSIVPFTSILDHLSYFDINEGSCL
modifications: Rhizopus cf. oryzae
Height as % of Control (corn [1]; Table 60, corn seed treatment 0.5 fl oz/unit, plant height on day 10, water control 100%): 103.7% | growth rate of corn, in words (corn [1]; text to Table 60): increase the growth rate

B2: Pseudomonas sp. Esterase (protein, listed as Pseudomonas sp.)
chain: MTEPLILQPVKPADACVIWLHGLGADRYDFLPVAEALQEILLSTRFVLPQAPTRPVTINGGYAMPSWYDIKAMSPARAIDRDELEASADRIIELIEEQRSSGIDASRIFLAGFSQGGAVVYHTAFLKWQGPLGGVLALSTYAPTFSDELELSASQQRIPVLSLHGQFDNVVQNSMGRTAYEYLKAHGVTVTWQEYPMEHEVLPEEIRDIGTWLSERLR
% Comparison to Control ([2]; base control = 100%, change in brackets): 90% (−10%) | Average cysts per g of root tissue ([2]; seed treatment, soybean 2830E3, concentrate = 4× volumetric concentration, base control 244.3): 220.2 cysts per g of root tissue | Difference in Percent Death of Nematodes for 0 to 24 Hours ([3]; Table 17, 40 μL per well, water control 4%): 22% | Difference in Percent Death of Nematodes for 0 to 24 Hours ([3]; Table 32, 40 μL of each treatment per well, water only 4%): 22% | difference in percent death during 24 hours ([3]; text to Table 32): 22%

B3: Sphingobium wenxiniae (PytH) Esterase (protein, listed as Sphingobium wenxiniae)
chain: MTVTDIILIHGALNRGACYDAVVPLLEARGYRVHAPDLTGHTPGDGGHLSVVDMEHYTRPVADILARAEGQSILLGHSLGGASISWLAQHHPDKVAGLIYLTAVLTAPGITPETFVLPGEPNRGTPHALDLIQPVDEGRGLQADFSRLERLREVFMGDYPGEGMPPAEQFIQTQSTVPFGTPNPMEGRALEIPRLYIEALDDVVIPIAVQRQMQKEFPGPVAVVSLPASHAPYYSMPERLAEAIADFADAPAEYRQTATKAGPDRPAGADGGRADRADLP
Yield (corn [4]; control 205.5): 208.8 Bu/A | Yield (corn [4]; control 13820.1): 14042.0 Kg/ha | yield versus base seed treatment package, in words (corn [4]; text to Table 57, 0.5 fl oz/unit): increased the yield

B4: Beauveria bassiana Feruloyl Esterase A2 (protein, listed as Beauveria bassiana)
chain: MLSLLGFLGFAALAAAAPVRDQAFIPRTLVNRSIYDKLALYAGYTQLSNTGICARPSVPGVLYQFVESKDTDTQVSIWKVDAYKEFVIAIPGTSSARDNETNFDFALVPYQADNVRCPSCRVHKGYQAAWRSVMKQVQGNLTNLLGIHPDYTVTLTGHSLGGGLVSIAFPTLRNGPYNVTQAYTYGQPRAGNGAFANYVDGISGASDKEAGIFYRVTHANDLIPKLPPGIFGYKHSRTEYWESKPSMDNAASTYRCYGQEPADCNRNATGIDSKVHVTYAGMNVTCNKS
modifications: Feruloyl Esterase A2
Yield (soybean; control 63.99): 64.86 Bu/A | Yield (soybean; control 4303.4): 4361.9 Kg/ha | yield versus base seed treatment package, in words (soybean; text to Table 56, 1 fl oz/unit): increased the yield

B5: PpII Lipase: free lipase from porcine pancreas Type II (PpII) (protein, UniProt P00591 1-450, looked up)
Pancreatic triacylglycerol …: SEVCFPRLGCFSDDAPWAGIVQRPLKILPWSPKDVDTRFLLYTNQNQNNYQELVADPSTITNSNFRMDRKTRFIIHGFIDKGEEDWLSNICKNLFKVESVNCICVDWKGGSRTGYTQASQNIRIVGAEVAYFVEVLKSSLGYSPSNVHVIGHSLGSHAAGEAGRRTNGTIERITGLDPAEPCFQGTPELVRLDPSDAKFVDVIHTDAAPIIPNLGFGMSQTVGHLDFFPNGGKQMPGCQKNILSQIVDIDGIWEGTRDFVACNHLRSYKYYADSILNPDGFAGFPCDSYNVFTANKCFPCPSEGCPQMGHYADRFPGKTNGVSQVFYLNTGDASNFARWRYKVSVTLSGKKVTGHILVSLFGNEGNSRQYEIYKGTLQPDNTHSDEFDSDVEVGDLQKVKFIWYNNNVINPTLPRVGASKITVERNDGKVYDFCSQETVREEVLLTLNPC
Dead Snails ([5]; Table 62, lipases, garden snail, control diet 0): 0 | Diet consumption ([5]; Table 62, lipases, garden snail, control diet 1.16): 0.82 gr | food consumption, in words ([5]; text to Table 62, lipases): consistent reduction in food consumption | Dead Larva ([6]; individuals of n = 32 after 7 days, U/mL diet: Bc 3.8, Pf 5.2, PpII 0.4, Rm 2.8, Lipase nd, water 2): 0 | Larva Stage I ([6]; n = 32, doses as E92, water 0): 2 | Larva Stage II ([6]; n = 32, doses as E92, water 0): 5 | Larva Stage III ([6]; n = 32, doses as E92, water 0): 15 | Larva Stage IV ([6]; n = 32, doses as E92, water 30): 10
